Laboratory results as given in IntAct's records for PubMed 31515488.

B1: Radial spoke head 1 homolog (Homo sapiens), Q8WYR4 (parent)
chain: MSDLGSEELEEEGENDIGEYEGGRNEAGERHGRGRARLPNGDTYEGSYEFGKRHGQGIYKFKNGARYIGEYVRNKKHGQGTFIYPDGSRYEGEWANDLRHGHGVYYYINNDTYTGEWFAHQRHGQGTYLYAETGSKYVGTWVNGQQEGTAELIHLNHRYQGKFLNKNPVGPGKYVFDVGCEQHGEYRLTDMERGEEEEEEELVTVVPKWKATQITELALWTPTLPKKPTSTDGPGQDAPGAESAGEPGEEAQALLEGFEGEMDMRPGDEDADVLREESREYDQEEFRYDMDEGNINSEEEETRQSDLQD
partner: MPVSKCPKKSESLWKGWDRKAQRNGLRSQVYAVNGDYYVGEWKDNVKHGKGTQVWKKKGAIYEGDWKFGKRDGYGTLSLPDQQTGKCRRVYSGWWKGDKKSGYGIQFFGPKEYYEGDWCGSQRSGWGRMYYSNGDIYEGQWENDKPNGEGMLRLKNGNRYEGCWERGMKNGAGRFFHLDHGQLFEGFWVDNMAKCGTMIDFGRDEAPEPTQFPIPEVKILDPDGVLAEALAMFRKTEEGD
B2: Late cornified envelope protein 1B (Homo sapiens), Q5T7P3 (parent)
chain: MSCQQNQQQCQPPPKCIPKCPPKCLTPRCPPKCPPKCPPVSSCCSVSSGGCCGSSSGGSCGSSSGGCCSSGGGGCCLSHHRRRRSHCHRPQSSGCCSQPSGGSSCCGGGSGQHSGGCC
partner: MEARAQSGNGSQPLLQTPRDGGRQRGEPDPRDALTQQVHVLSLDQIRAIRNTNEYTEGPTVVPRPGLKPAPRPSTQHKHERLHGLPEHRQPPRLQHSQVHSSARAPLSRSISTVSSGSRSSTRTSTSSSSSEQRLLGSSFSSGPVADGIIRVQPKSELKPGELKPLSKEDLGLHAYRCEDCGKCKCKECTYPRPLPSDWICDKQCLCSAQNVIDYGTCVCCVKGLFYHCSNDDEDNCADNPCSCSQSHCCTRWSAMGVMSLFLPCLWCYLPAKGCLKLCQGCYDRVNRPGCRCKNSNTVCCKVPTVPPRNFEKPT
B3: Cytohesin-4 (Homo sapiens), Q9UIA0 (parent)
chain: MDLCHPEPAELSSGETEELQRIKWHRKQLLEDIQKLKDEIADVFAQIDCFESAEESRMAQKEKELCIGRKKFNMDPAKGIQYFIEHKLLTPDVQDIARFLYKGEGLNKTAIGTYLGERDPINLQVLQAFVDCHEFANLNLVQALRQFLWSFRLPGEAQKIDRMMEAFATRYCLCNPGVFQSTDTCYVLSFSIIMLNTSLHNPNVRDRPPFERFVSMNRGINNGSDLPEDQLRNLFDSIKSEPFSIPEDDGNDLTHTFFNPDREGWLLKLGGRVKTWKRRWFILTDNCLYYFEFTTDKEPRGIIPLENLSVQKVDDPKKPFCLELYNPSCRGQKIKACKTDGDGRVVEGKHESYRISATSAEERDQWIESIRASITRVPFYDLVSTRKKKIASKQ
B4: ATP-binding cassette sub-family F member 3 (Homo sapiens), Q9NUQ8 (parent)
chain: MATCAEILRSEFPEIDGQVFDYVTGVLHSGSADFESVDDLVEAVGELLQEVSGDSKDDAGIRAVCQRMYNTLRLAEPQSQGNSQVLLDAPIQLSKITENYDCGTKLPGLLKREQSSTVNAKKLEKAEARLKAKQEKRSEKDTLKTSNPLVLEEASASQAGSRKESRLESSGKNKSYDVRIENFDVSFGDRVLLAGADVNLAWGRRYGLVGRNGLGKTTLLKMLATRSLRVPAHISLLHVEQEVAGDDTPALQSVLESDSVREDLLRRERELTAQIAAGRAEGSEAAELAEIYAKLEEIEADKAPARASVILAGLGFTPKMQQQPTREFSGGWRMRLALARALFARPDLLLLDEPTNMLDVRAILWLENYLQTWPSTILVVSHDRNFLNAIATDIIHLHSQRLDGYRGDFETFIKSKQERLLNQQREYEAQQQYRQHIQVFIDRFRYNANRASQVQSKLKMLEKLPELKPVDKESEVVMKFPDGFEKFSPPILQLDEVDFYYDPKHVIFSRLSVSADLESRICVVGENGAGKSTMLKLLLGDLAPVRGIRHAHRNLKIGYFSQHHVEQLDLNVSAVELLARKFPGRPEEEYRHQLGRYGISGELAMRPLASLSGGQKSRVAFAQMTMPCPNFYILDEPTNHLDMETIEALGRALNNFRGGVILVSHDERFIRLVCRELWVCEGGGVTRVEGGFDQYRALLQEQFRREGFL
partner: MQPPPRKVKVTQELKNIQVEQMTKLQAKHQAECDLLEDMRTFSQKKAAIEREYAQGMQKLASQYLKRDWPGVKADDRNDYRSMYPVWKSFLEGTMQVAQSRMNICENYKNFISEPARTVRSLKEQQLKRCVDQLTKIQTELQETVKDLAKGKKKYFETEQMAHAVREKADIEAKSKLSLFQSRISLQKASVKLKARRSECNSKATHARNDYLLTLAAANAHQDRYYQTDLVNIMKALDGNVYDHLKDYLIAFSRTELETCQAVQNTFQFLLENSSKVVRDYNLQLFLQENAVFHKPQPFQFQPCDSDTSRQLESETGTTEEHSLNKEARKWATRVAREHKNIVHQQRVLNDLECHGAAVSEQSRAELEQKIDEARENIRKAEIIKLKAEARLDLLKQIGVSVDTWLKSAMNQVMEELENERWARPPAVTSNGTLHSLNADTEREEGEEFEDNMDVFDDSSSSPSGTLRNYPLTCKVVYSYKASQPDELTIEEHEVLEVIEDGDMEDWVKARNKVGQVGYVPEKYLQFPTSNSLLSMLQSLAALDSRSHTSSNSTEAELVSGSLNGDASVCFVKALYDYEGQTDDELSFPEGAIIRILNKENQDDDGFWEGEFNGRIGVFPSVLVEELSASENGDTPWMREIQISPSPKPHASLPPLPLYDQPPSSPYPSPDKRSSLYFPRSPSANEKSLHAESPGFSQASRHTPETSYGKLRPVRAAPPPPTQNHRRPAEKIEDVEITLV
B5: Zinc finger and BTB domain-containing protein 43 (Homo sapiens), O43298 (parent)
chain: MEPGTNSFRVEFPDFSSTILQKLNQQRQQGQLCDVSIVVQGHIFRAHKAVLAASSPYFCDQVLLKNSRRIVLPDVMNPRVFENILLSSYTGRLVMPAPEIVSYLTAASFLQMWHVVDKCTEVLEGNPTVLCQKLNHGSDHQSPSSSSYNGLVESFELGSGGHTDFPKAQELRDGENEEESTKDELSSQLTEHEYLPSNSSTEHDRLSTEMASQDGEEGASDSAEFHYTRPMYSKPSIMAHKRWIHVKPERLEQACEGMDVHATYDEHQVTESINTVQTEHTVQPSGVEEDFHIGEKKVEAEFDEQADESNYDEQVDFYGSSMEEFSGERSDGNLIGHRQEAALAAGYSENIEMVTGIKEEASHLGFSATDKLYPCQCGKSFTHKSQRDRHMSMHLGLRPYGCGVCGKKFKMKHHLVGHMKIHTGIKPYECNICAKRFMWRDSFHRHVTSCTKSYEAAKAEQNTTEAN
partner: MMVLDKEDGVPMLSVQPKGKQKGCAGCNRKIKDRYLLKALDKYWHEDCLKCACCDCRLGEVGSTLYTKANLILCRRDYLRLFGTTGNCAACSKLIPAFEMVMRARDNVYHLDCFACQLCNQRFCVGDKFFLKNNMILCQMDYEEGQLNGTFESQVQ
B6: Activated CDC42 kinase 1 (Homo sapiens), Q07912-2 (parent)
chain: MQPEEGTGWLLELLSEVQLQQYFLRLRDDLNVTRLSHFEYVKNEDLEKIGMGRPGQRRLWEAVKRRKALCKRKSWMSKVFSGKRLEAEFPPHHSQSTFRKTSPAPGGPAGEGPLQSLTCLIGEKDLRLLEKLGDGSFGVVRRGEWDAPSGKTVSVAVKCLKPDVLSQPEAMDDFIREVNAMHSLDHRNLIRLYGVVLTPPMKMVTELAPLGSLLDRLRKHQGHFLLGTLSRYAVQVAEGMGYLESKRFIHRDLAARNLLLATRDLVKIGDFGLMRALPQNDDHYVMQEHRKVPFAWCAPESLKTRTFSHASDTWMFGVTLWEMFTYGQEPWIGLNGSQILHKIDKEGERLPRPEDCPQDIYNVMVQCWAHKPEDRPTFVALRDFLLEAQPTDMRALQDFEEPDKLHIQMNDVITVIEGRAENYWWRGQNTRTLCVGPFPRNVVTSVAGLSAQDISQPLQNSFIHTGHGDSDPRHCWGFPDRIDECPFSAFSPGHPPAETCGQVLWTGRREACASDPRLHPVSSRTKGL
partner: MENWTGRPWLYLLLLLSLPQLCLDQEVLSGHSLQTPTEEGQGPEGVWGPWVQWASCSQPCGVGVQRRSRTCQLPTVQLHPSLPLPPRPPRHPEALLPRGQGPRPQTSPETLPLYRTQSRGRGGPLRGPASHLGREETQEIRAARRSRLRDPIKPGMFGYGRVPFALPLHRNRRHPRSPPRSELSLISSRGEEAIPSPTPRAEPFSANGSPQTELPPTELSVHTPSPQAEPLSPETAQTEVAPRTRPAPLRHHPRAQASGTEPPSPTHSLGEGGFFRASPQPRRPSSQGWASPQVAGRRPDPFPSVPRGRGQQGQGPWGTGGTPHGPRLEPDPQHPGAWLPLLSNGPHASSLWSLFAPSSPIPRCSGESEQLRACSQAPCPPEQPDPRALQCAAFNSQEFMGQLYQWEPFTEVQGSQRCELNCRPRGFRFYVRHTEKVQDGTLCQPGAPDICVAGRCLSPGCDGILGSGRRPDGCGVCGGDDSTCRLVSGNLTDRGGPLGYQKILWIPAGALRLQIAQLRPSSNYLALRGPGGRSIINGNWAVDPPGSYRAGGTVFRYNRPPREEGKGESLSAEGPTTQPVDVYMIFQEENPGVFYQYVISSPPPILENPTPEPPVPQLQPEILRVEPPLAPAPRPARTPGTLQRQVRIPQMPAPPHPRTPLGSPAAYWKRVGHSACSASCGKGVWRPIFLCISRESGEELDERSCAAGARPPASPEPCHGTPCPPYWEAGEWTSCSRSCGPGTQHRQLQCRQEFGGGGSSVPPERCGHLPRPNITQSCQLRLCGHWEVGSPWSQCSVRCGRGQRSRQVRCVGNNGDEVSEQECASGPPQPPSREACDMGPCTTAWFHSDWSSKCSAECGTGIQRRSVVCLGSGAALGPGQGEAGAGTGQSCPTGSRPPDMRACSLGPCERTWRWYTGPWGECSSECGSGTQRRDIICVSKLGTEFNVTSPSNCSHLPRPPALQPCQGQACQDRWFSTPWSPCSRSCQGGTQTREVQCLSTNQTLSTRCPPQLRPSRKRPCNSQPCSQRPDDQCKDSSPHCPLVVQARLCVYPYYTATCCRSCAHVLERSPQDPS

Variants of: B1
Conditions: with morn3_human MORN3, Q6PF18

Row | Variant | effect of a mutation on the interaction
1 | G248R | with no effect
2 | G144R | with no effect

Variants of: B2
Conditions: with spy2_human SPRY2, O43597

Row | Variant | effect of a mutation on the interaction
3 | C51Y | with no effect
4 | H113Q | with no effect
5 | G108E | with no effect

Variants of: B3
Conditions: with fos_human FOS

Row | Variant | effect of a mutation on the interaction
6 | A9T | with no effect
7 | M74V | with no effect

Variants of: B4
Conditions: with fcsd2_human FCHSD2, O94868

Row | Variant | effect of a mutation on the interaction
8 | R510H | with no effect
9 | R340W | with no effect

Variants of: B5
Conditions: with rbtn1_human LMO1, P25800

Row | Variant | effect of a mutation on the interaction
10 | L151V | disrupting interaction strength

Variants of: B6
Conditions: with atl4_human ADAMTSL4, Q6UY14

Row | Variant | effect of a mutation on the interaction
11 | R34L | with no effect
